Results from article PMC3873694.

Tests used:
[1] = biological target: fetal muscle nicotinic acetylcholine receptor (α1β1γδ), mouse (mouse) (UniProt P04756)
[2] = biological target: adult muscle nicotinic acetylcholine receptor (α1β1εδ), mouse (mouse) (UniProt P04756)
[3] = biological target: fetal muscle nicotinic acetylcholine receptor (α1β1γδ), mouse (mouse) (UniProt P04756); remark: listed apart in the source

## Fraction 4 of the tentacle venom extract (TVE) of the jellyfish Aurelia aurita
[1]
  percent block of ACh-elicited currents at 1.5, 3 and 4.5 μg total protein of fraction 4 (25%, 50%, 96%), voltage clamp on X. laevis oocytes: 96%
[2]
  IC50 of inhibition of ACh-elicited currents, two-electrode voltage clamp on X. laevis oocytes expressing the receptor: 2280 µg/mL
[3]
  IC50 of inhibition of ACh-elicited currents, two-electrode voltage clamp on X. laevis oocytes expressing the receptor: 1770 µg/mL
